Patent publication US6585979

Assays:
[1] = molecular target: rgp120 from breakthrough virus clone C10.5 (herpes simplex virus type 1; HIV-1, breakthrough virus of vaccinee C10); test: capture ELISA, MAb at 2 ug/ml
[2] = molecular target: rgp120 from breakthrough virus clone C10.7 (herpes simplex virus type 1; HIV-1, breakthrough virus of vaccinee C10); test: capture ELISA, MAb at 2 ug/ml
[3] = molecular target: rgp120 from breakthrough virus clone C11.5 (herpes simplex virus type 1; HIV-1, breakthrough virus of vaccinee C11); test: capture ELISA, MAb at 2 ug/ml
[4] = molecular target: rgp120 from breakthrough virus clone C11.7 (herpes simplex virus type 1; HIV-1, breakthrough virus of vaccinee C11); test: capture ELISA, MAb at 2 ug/ml
[5] = molecular target: rgp120 from breakthrough virus clone C15.2 (herpes simplex virus type 1; HIV-1, breakthrough virus of vaccinee C15); test: capture ELISA, MAb at 2 ug/ml
[6] = molecular target: rgp120 from breakthrough virus clone C15.3 (herpes simplex virus type 1; HIV-1, breakthrough virus of vaccinee C15); test: capture ELISA, MAb at 2 ug/ml
[7] = molecular target: rgp120 from breakthrough virus clone C17.1 (herpes simplex virus type 1; HIV-1, breakthrough virus of vaccinee C17); test: capture ELISA, MAb at 2 ug/ml
[8] = molecular target: rgp120 from breakthrough virus clone C17.3 (herpes simplex virus type 1; HIV-1, breakthrough virus of vaccinee C17); test: capture ELISA, MAb at 2 ug/ml
[9] = molecular target: rgp120 from breakthrough virus clone C6.1 (herpes simplex virus type 1; HIV-1, breakthrough virus of vaccinee C6); test: capture ELISA, MAb at 2 ug/ml
[10] = molecular target: rgp120 from breakthrough virus clone C6.5 (herpes simplex virus type 1; HIV-1, breakthrough virus of vaccinee C6); test: capture ELISA, MAb at 2 ug/ml
[11] = molecular target: rgp120 from breakthrough virus clone C7.2 (herpes simplex virus type 1; HIV-1, breakthrough virus of vaccinee C7); test: capture ELISA, MAb at 2 ug/ml
[12] = molecular target: rgp120 from breakthrough virus clone C8.3 (herpes simplex virus type 1; HIV-1, breakthrough virus of vaccinee C8); test: capture ELISA, MAb at 2 ug/ml
[13] = molecular target: rgp120 from breakthrough virus clone C8.6 (herpes simplex virus type 1; HIV-1, breakthrough virus of vaccinee C8); test: capture ELISA, MAb at 2 ug/ml
[14] = molecular target: MN-rgp120 (herpes simplex virus type 1; HIV-1, MN strain); test: capture ELISA, MAb at 2 ug/ml (reference)
[15] = molecular target: MN-rgp120 (herpes simplex virus type 1; HIV-1, MN strain); test: capture ELISA (FIG. 5C)

Row | Substance | relative reactivity (OD ratio to MN-rgp120) [1] | relative reactivity (OD ratio to MN-rgp120) [2] | relative reactivity (OD ratio to MN-rgp120) [3] | relative reactivity (OD ratio to MN-rgp120) [4] | relative reactivity (OD ratio to MN-rgp120) [5] | relative reactivity (OD ratio to MN-rgp120) [6] | relative reactivity (OD ratio to MN-rgp120) [7] | relative reactivity (OD ratio to MN-rgp120) [8] | relative reactivity (OD ratio to MN-rgp120) [9] | relative reactivity (OD ratio to MN-rgp120) [10] | relative reactivity (OD ratio to MN-rgp120) [11] | relative reactivity (OD ratio to MN-rgp120) [12] | relative reactivity (OD ratio to MN-rgp120) [13] | relative reactivity (OD ratio to MN-rgp120) [14] | fold greater binding than to any of the breakthrough virus envelope proteins [15]
1 | MAb 15e (antibody) | 0.46 | 0.5 | 0.17 | 0.17 | 0.92 | 0.63 | 0.33 | 0.33 | 0.17 | 0.75 | 0.71 | 0.38 | 0.29 | 1 | 
2 | MAb 50.1 (antibody) | 0.4 | 0.48 | 0 | 0 | 0.47 | 0.37 | 0.52 | 0.56 | 0.37 | 0.33 | 0.6 | 0.37 | 0.34 | 1 | 10 fold
